This note sets out measurements from PMC11784139.

Substitutions are numbered along the chain they refer to.

Assay in all cases: EMSA
Holding throughout (settings): EMSA: 5 mM Tris-HCl pH 7.5, 0.1 mM EDTA, 5 mM MgCl2, 10 mM KCl, 0.2 mM DTT, 30 C, 30 min, native PAGE in 0.5x TBE; MST: 50 mM PBS pH 7.2-7.4, temperature not …
Background: In EMSA bound probe runs differently from free probe, usually more slowly.

The subject of series [1] is T1, 6xHis-APR1 T306L T306L (Acinetobacter venetianus RAG-1), ORF:d17a4b85.
T1 sequence: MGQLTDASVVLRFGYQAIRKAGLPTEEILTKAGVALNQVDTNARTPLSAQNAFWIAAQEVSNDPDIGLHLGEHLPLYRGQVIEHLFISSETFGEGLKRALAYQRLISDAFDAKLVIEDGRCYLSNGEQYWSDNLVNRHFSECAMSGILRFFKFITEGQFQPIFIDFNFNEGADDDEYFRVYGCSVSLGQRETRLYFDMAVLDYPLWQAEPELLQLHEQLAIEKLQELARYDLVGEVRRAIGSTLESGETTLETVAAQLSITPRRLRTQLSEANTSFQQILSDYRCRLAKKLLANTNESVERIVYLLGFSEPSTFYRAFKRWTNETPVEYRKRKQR

Series [2] has as its system T2, MBP-APR1 L265S L265S (Acinetobacter venetianus RAG-1), ORF:d17a4b85.
T2 sequence: T1 sequence with L265S, L306T

Series [3] has as its system T3, 6xHis-APR1 V303E V303E (Acinetobacter venetianus RAG-1), ORF:d17a4b85.
T3 sequence: T1 sequence with V303E, L306T

Series [4] has as its system T4, 6xHis-APR1 F314S F314S (Acinetobacter venetianus RAG-1), ORF:d17a4b85.
T4 sequence: T1 sequence with L306T, F314S

The subject of series [5] is T5, 6xHis-APR1 F318S F318S (Acinetobacter venetianus RAG-1), ORF:d17a4b85.
T5 sequence: T1 sequence with L306T, F318S

For the sequence “AGCCTACCTGATGATCAAATTGGAAAGGCGCAAATTATAGTCAATTTATTTGAAATTTACAAGACGCTCTCTTAGCAAAGCTTGTACAGATGAATTGGAAAAAACTGTCAGACAATCCTCATTTTTTTTTAACAAAAGAAGCAGAATAGTGTTGTCAGTTTGGTCAATCAACGTTAATCTAAAATTATTGTTTATTGTCACAATAACGTATCTACAGGGAAGGGCACTGC (double strand) [apR1 promoter]”, the binding entry in series [1] is recorded as “binds”; in series [2], “no binding”; in series [3], “no binding”; in series [4] it was “no binding”; in series [5], “no binding”.
